According to patent US20180355046A1 (Boehringer Ingelheim, published 2018):

Target: human TrkB receptor on cells (human, UniProt Q16620 32-822)
Assay: cell-based or functional assay

human TrkB receptor on cells, sequence (Q16620 32-822): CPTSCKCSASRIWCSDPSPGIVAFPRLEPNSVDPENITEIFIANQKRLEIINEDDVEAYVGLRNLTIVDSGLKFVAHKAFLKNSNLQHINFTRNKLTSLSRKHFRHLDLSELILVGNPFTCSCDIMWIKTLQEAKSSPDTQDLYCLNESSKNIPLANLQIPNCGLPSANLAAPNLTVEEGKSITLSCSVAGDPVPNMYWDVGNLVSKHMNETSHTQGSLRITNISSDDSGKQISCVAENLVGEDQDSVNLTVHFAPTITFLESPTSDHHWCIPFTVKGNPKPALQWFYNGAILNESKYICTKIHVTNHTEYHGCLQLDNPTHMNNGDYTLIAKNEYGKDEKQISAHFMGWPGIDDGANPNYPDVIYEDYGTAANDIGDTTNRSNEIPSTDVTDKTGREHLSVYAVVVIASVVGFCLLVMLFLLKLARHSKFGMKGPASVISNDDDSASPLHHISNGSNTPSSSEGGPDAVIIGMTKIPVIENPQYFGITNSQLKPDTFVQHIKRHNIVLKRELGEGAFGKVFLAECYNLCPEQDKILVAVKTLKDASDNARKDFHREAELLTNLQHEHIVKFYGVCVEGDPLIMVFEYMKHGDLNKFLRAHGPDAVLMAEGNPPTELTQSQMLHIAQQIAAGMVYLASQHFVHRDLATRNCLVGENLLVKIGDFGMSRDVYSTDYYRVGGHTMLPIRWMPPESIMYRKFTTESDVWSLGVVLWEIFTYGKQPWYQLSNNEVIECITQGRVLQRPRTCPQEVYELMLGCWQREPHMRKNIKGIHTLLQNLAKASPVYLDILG

AKT 1/2/3-P (T308), differentiated SH-SY5Y cells, EC50: 255 pM | TrkB-P (TrkB phosphorylation, AlphaLISA, differentiated SH-SY5Y cells), EC50: 430 pM
B1: brain-derived neurotrophic factor (BDNF) (ligand, UniProt P23560 129-247, looked up)
chain: HSDPARRGELSVCDSISEWVTAADKKTAVDMSGGTVTVLEKVPVSKGQLKQYFYETKCNPMGYTKEGCRGIDKRHWNSQCRTTQSYVRALTMDSKKRIGWRFIRIDTSCVCTLTIKRGR
